This is an account of results in the nanobody polyreactivity screen of Harvey et al. (2022).

The data set can be described thus: yeast display, Sf9 membrane polyspecificity reagent, FACS + sequencing; frameworks hold sequencing errors. The gist of the method:
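Nanobodies came from a synthetic yeast display library in Saccharomyces cerevisiae BJ5465, induced with galactose for 36–48 hours and stained for 1 hour at 4 °C with 10% biotinylated, detergent-solubilized Sf9 membrane reagent. Cells were enriched on streptavidin microbeads and then FACS-sorted, with low and high (top ~1%) gates set on anti-HA fluorescence for expression and streptavidin fluorescence for reagent binding. Each polyreactivity label reflects the gate a clone came from. Genes were amplified by colony PCR, sequenced by MiSeq 2 × 250 and filtered by CDR length.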
In the case of “QVQLVESGGGLVQAGGSLRLSCAASGRTFDKYAMGCYRPAPGTQRELVAAINSSGGSTYYSDSVKGRFTISRDNEKNTVYLQMNSLKPEDTAFYYCAALGIGSYRRYSCYDYWGQGPQVTVSS”, the “polyreactivity (PSR sort gate)” value is “low polyreactivity”.
Turning to “QVQLVESGGGLVQAGGSLRLSCAASGRTFDKYAMGWYRQAPGKERELVAAISGSGGRTYYADSVKGRFTISRDNETNTVYLQMNSLKPEDTAVYYCAADTRSYTYYYWGQGTQVTVSS”, the “polyreactivity (PSR sort gate)” value was “high polyreactivity”.
As for “QVQLVESGGGLVQAGGSLRLSCAASGRTFDLYDMGWYRQAPGKERELVARISYNGGITYYADSVKGRFTISRDNAKNTVYLQMNSLKPEDTAVYYCDGRYRPHFGPLFEYDYWGQGTQVTVSS”, the entry is “low polyreactivity”; as for “QVQLVESGGGLVQAGGSLRLSCAASGRTFDPYAMGWYRQAPGKERELVASISRGGSTYADSVKGRFTISRDNAKNTVFLQMNSLKPEDTAVYYCNTSLYTEGDAMDYWGQGTQVTVSS”, “low polyreactivity”.
Consider “QVQLVESGGGLVQAGGSLRLSCAASGRTFDRNARGWYRQAPGKEREVVARITIDGSTNYADSVKGRFTISRDNAKNTVYLQMNSLKPEETAVYYCATDQLSLSWYFRPYDYCYWGQVTQVTVSS”, for which the “polyreactivity (PSR sort gate)” value is recorded as “high polyreactivity”.
As to “QVQLVESGGGLVQAGGSLRLSCAASGRTFDRYAMGWARQAPGKERELVATISRSGGSTYYADSVKGRFTISRDNAKNTVYLQMNSLKPEDSAVYYCAARQRTTSDGWRDSWGQGTQVTVSS”, the “polyreactivity (PSR sort gate)” value was “high polyreactivity”.
“QVQLVESGGGLVQAGGSLRLSCAASGRTFDSNAMGLYRQAPGKERELVAAISYGGGTTHYADSVKGRFTISRDNAKNTVYLQMNSLKPEDTAVYYCAADPEHQWESVTIGEYDYWGQGTQVTVSS”: the “polyreactivity (PSR sort gate)” value is recorded as “low polyreactivity”.
For the sequence “QVQLVESGGGLVQAGGSLRLSCAASGRTFDSNAMGWYRQAPGKERELVAGISESGGSTYYADSVKGRFTISRDNAKNTVYLQMNSLKPEDTAVYYCAYSGITVYYHRAVDFIVSYDYWGQGTQVTVSS”, the “polyreactivity (PSR sort gate)” value is on record as “low polyreactivity”.
Regarding “QVQLVESGGGLVQAGGSLRLSCAASGRTFDSYTMGWYRQAPGKERELVADITFTGGSTYYADSVKGRFTISRDNAKNTVYLQMNSLKPDDTAVYYCNADREYKWYFRYDYWGQGTQVTVSS”, the “polyreactivity (PSR sort gate)” value is “low polyreactivity”.
“QVQLVESGGGLVQAGGSLRLSCAASGRTFDTNAMGWYRQAPGKERELVAVITARGGNTSYADSVKGRFTISRENAKNTVSLQMNSLKPEDTAVYYCAARVYRAPWTYEEGNYWGQGTQVTVSS”: the “polyreactivity (PSR sort gate)” value is “low polyreactivity”.
For “QVQLVESGGGLVQAGGSLRLSCAASGRTFDVYAMGWYRQAPGKERELVATISYRSARTYYADSVKGRFTISRDNAKNTVYLQMNSLKPEDTAVYYCAAYFETWHGVGYWGQGTQVTVSS”, the “polyreactivity (PSR sort gate)” value was “high polyreactivity”.
With “QVQLVESGGGLVQAGGSLRLSCAASGRTFDVYAMGWYRQAPGKERELVAVIRGRAGSTYYADSVKGRFTISRDNAKNTVYLQMNSLKPEDTAVYYCAAAKYVRRGLRAWRGDEYDYWGQGTQVTVSS” the entry was “high polyreactivity”; with “QVQLVESGGGLVQAGGSLRLSCAASGRTFDVYAMGWYRQPPGKESELVATISYRSARTYSADSVKGRFTISRDNAKNTVYLQMNSLKPEDTAVYYCAARVGARVSQPRRHGRFNYWGQGTQVTVSS”, “high polyreactivity”; with “QVQLVESGGGLVQAGGSLRLSCAASGRTFDWYVMGWYRQAPGKERELVATITRDGSTNYADSVKGRFTISRDNAKNTVYLQMNSLKPEDTAVYYCAATVPPLVGYDYWGQGTQVTVSS”, “low polyreactivity”.
With “QVQLVESGGGLVQAGGSLRLSCAASGRTFEDNAMGWYRQAPGKERELVAAISSDGSTNYADSVKGRFTISRDNAKNTVYLQMNSLKPEDTAVYYCNATVYWPYDWRTSDYWGQGTQVTVSS”, the “polyreactivity (PSR sort gate)” value is reported as “low polyreactivity”.
In the case of “QVQLVESGGGLVQAGGSLRLSCAASGRTFEGYAMGWYRQAPGKERELVAAISGSSGSTYYADSVKGRFTISRDNAKNTVYLQMNSLKPEDTAVYYCNADYDWPGGSDYWGQGTQVTVSS”, the “polyreactivity (PSR sort gate)” value is listed as “low polyreactivity”.
As for “QVQLVESGGGLVQAGGSLRLSCAASGRTFEHYSMGWYRQAPGKEREFVAVIDSSDGSTYYADSVKGRFTISRDNAKNTVYLQMNSLKPEDTAVYYCLGGYYYLQYDYWGQGTQVTVSS”, the “polyreactivity (PSR sort gate)” value is listed as “low polyreactivity”.
As for “QVQLVESGGGLVQAGGSLRLSCAASGRTFEHYVMGWYRQAPGKERELVAAISNSGDTTFYADSVKGRFTISRDNAKNTVYFQMNSLKPEDTAVYYCNADSYWHWGEWLYAPYDYWGQGTQVTVSS”, the entry is “low polyreactivity”; as for “QVQLVESGGGLVQAGGSLRLSCAASGRTFEINAMGWYRQAPGKERELVAAITVSGGSTYYADSVKGRFTISRDNAKNTVYLQMNSLKPEDTAVYYCAVEIDYGQGKEVNSWGQGTQVTVSS”, “low polyreactivity”; as for “QVQLVESGGGLVQAGGSLRLSCAASGRTFENYAMGWYRQAPGKERELVAAISKSGGSTYYADSVKGRFTISRDNAKNTVYLQMNSLKPEDTAVYYCAARLPGYYGIGDYWGQGTQVTVSS”, “high polyreactivity”.
With “QVQLVESGGGLVQAGGSLRLSCAASGRTFERYAMGWYRQAPGKERELVAAISSGGSTNYADSVKGRFTISRDNAKNTVYLQMNSLKPEDTAVYYCNVDWAVKDPSYVSQGEGDYWGQGTQVTVSS”, the “polyreactivity (PSR sort gate)” value is reported as “low polyreactivity”.
As to “QVQLVESGGGLVQAGGSLRLSCAASGRTFERYAMGWYRQAPGKERELVAAITSGGSTYYADSVKGRFTISRDNAKNTVYLQMNSLKPEDTAVYYCATSNWWGYDYWGQGTQVTVSS”, the “polyreactivity (PSR sort gate)” value is on record as “high polyreactivity”.
With “QVQLVESGGGLVQAGGSLRLSCAASGRTFETNAMGWYRQAPGKERELVAAISRSGGSTRYADSVKGRFTISRDNAKNTVYLQMNSLKPEDTAVYYCAAETWYRGYKFDYWGQGTQVTVSS”, the “polyreactivity (PSR sort gate)” value is listed as “high polyreactivity”.
As for “QVQLVESGGGLVQAGGSLRLSCAASGRTFEWYALGWYRQAPGKERELVAAIRSGGGTNYADSVKGRFTISPDNAKNTVYLQMNSLKPEDTAVYYCAKEWAGGLYDYWGQGTQVTVTS”, the entry is “low polyreactivity”; as for “QVQLVESGGGLVQAGGSLRLSCAASGRTFFDYAMGWYRQAPGKERELVAAINWSGGRTYYADSVKGRFTISRDNAKNTVYLQMNTLKPEDTAVYYCAKPFSSNSWSHGYWGQGTQVTVSS”, “low polyreactivity”.
On to “QVQLVESGGGLVQAGGSLRLSCAASGRTFFDYTMGWYRPAPGKERELVAAITGGDGSTYYADSVKGRFTISRDNAKNTVYLQMNSLKPEDTAVYYCAASVWYNPMDYWGQVTQVTVSS”, for which the “polyreactivity (PSR sort gate)” value is given as “low polyreactivity”.
As for “QVQLVESGGGLVQAGGSLRLSCAASGRTFFEYAMGWYRQAPGKEMDLVAIITNGATTNYADSVKGRFTISRDNAKNTVYLQMNSLKPEDTAVYYCAVAKWQPRRRKYYYWGQGTQVTVSS”, the “polyreactivity (PSR sort gate)” value is “high polyreactivity”.
For the sequence “QVQLVESGGGLVQAGGSLRLSCAASGRTFFGYAMGWYRQAPGKERELVATISGSGASTYYADSVKGRFTISRDNAKNTVYLQMNSLKPEDTAVYYCAARYVTTRHSRYYYWGQGTQVTVSS”, the “polyreactivity (PSR sort gate)” value is “high polyreactivity”.
Regarding “QVQLVESGGGLVQAGGSLRLSCAASGRTFFIYAMGWYRQAPGKERELVAAIRWRGGSTYYADSVKGRFTISRDNAKNTVYLQMNSLKPEDTAVYYCAASTRQARYEDYYWGQGTQVTVSS”, the “polyreactivity (PSR sort gate)” value is “high polyreactivity”.
On to “QVQLVESGGGLVQAGGSLRLSCAASGRTFFIYAMGWYRQAPGKERELVAAISNGGSTNYADSVKGRFTISRDNAKNPVYLQLNSLKPEDTAVYYCAAQYIGNLRGVFHYEFDWGQGTQVSVSS”, for which the “polyreactivity (PSR sort gate)” value is “high polyreactivity”.
